B1: KRT34 (parent)
chain: PTVDLNQVLNETRSQYEALVETNR

Variants of: B1
Assay: protein stability index of a GFP-peptide fusion (GPS, HEK-293T) (PSI 1-6); higher = more stable
Settings: c terminus: a fixed tail appended
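Also: lentivirally expressed fusions sorted by FACS into six bins by GFP to DsRed ratio, PSI derived from sequencing read proportions per bin multiplied by bin number.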

Variant | protein stability index
L5C | 3.68
L5S | 4.13
L5G | 4.68
L5R | 4.53
L5T | 4.8
L5A | 2.51
L5N | 4.57
V8K | 4.22
V8S | 4.18
V8Y | 2.29
V8Q | 4.3
V8M | 2.88
R24P | 4.58
R24W | 3.55
R24H | 4.08
R24L | 2.68
R24Q | 4.18
R24D | 4.95
R24F | 2.5
R24C | 2.56
N23M | 3.12
N23W | 2.53
N23S | 4.39
N23L | 2.41

Variant | protein stability index
N23Q | 4.52
N23A | 4.03
R13Q | 3.97
R13E | 5.07
R13S | 4.67
R13L | 3.34
R13A | 3.85
R13W | 3.71
R13T | 4.27
R13V | 3.42
E11N | 3.69
E11F | 3.22
E11S | 3.85
E11M | 3.95
E11G | 4.05
E11V | 4.44
E11I | 3.42
D4Y | 3.44
D4L | 3.56
D4V | 4.02
D4E | 4.01
D4P | 3.05
D4K | 3.94
D4M | 3.21

Variant | protein stability index
D4H | 3.56
D4A | 4.21
Q15M | 2.35
Q15S | 4.38
Q15Y | 2.91
Q15L | 2.25
E17K | 4.12
E17G | 4.02
E17Q | 3.88
E17C | 2.93
E17H | 3.93
E17T | 4.23
V3L | 2.65
V3W | 5.02
V3A | 3.63
V3G | 4.15
V3Q | 3.05
V3R | 2.92
V3P | 4.62
L19E | 5.63
L19S | 4.99
L19G | 5.03
L19H | 4.75
L19W | 3.98

Variant | protein stability index
L19Q | 4.63
L19A | 4.47
P1I | 2.42
P1Y | 2.84
P1C | 2.77
P1L | 2.88
P1G | 3.5
P1R | 3.43
P1H | 3.97
P1T | 3.96
A18Q | 3.78
A18D | 3.92
A18T | 3.81
A18V | 4.01
A18H | 4.4
N6I | 2.03
N6S | 3.33
N6W | 2.5
E21D | 3.64
E21F | 2.74
E21N | 3.83
E21K | 4.3
E21W | 2.62
E21S | 4.02

Variant | protein stability index
E21R | 3.62
Q7D | 3.66
Q7P | 4.79
Q7K | 3.98
Q7I | 2.99
Q7V | 2.37
Q7H | 4
Q7A | 3.13
Q7M | 3.62
Q7T | 2.75
Q7G | 4.25
S14W | 2.74
S14I | 2.44
S14R | 2.15
S14C | 2.25
S14G | 3.56
S14D | 2.87
S14M | 1.65
Y16M | 4.76
Y16C | 4.44
Y16A | 5.1
Y16I | 4.23
Y16D | 5.26
T12E | 4.27

Variant | protein stability index
T12I | 1.84
T12H | 1.75
T12F | 2.4
T12C | 3.49
T22W | 4.02
T22A | 4.01
T22M | 3.19
T22P | 4.28
T22F | 3.78
T22H | 3.99
T22Y | 4.23
T22D | 4.58
T22G | 4.41
T22V | 1.71
T2Y | 1.65
T2D | 3.82
T2F | 1.89
T2P | 3.01
T2E | 2.78
T2I | 2.99
T2G | 4.14
L9K | 4.45
L9N | 4.76
L9P | 5.34

Variant | protein stability index
L9T | 4.61
L9H | 4.66
L9S | 5.03
L9M | 4.21
L9F | 3.45
N10T | 2.75
N10M | 2.49
N10S | 3.46
N10D | 3.74
N10Q | 2.5
N10K | 2.7
N10C | 2.82
N10A | 2.44
N10L | 1.58
N10R | 3.21
V20M | 3.58
V20H | 4.77
V20F | 3.64
V20T | 4.25
V20W | 3.83
V20S | 3.98
V20E | 3.52
V20C | 3.68

From the supplement of paper PMC10567573
